The record followed here is IntAct's records for PubMed 11331308.

The labels stand for the following.
B1: Alpha-parvin (Homo sapiens), Q9NVD7 (parent)
chain: MATSPQKSPSVPKSPTPKSPPSRKKDDSFLGKLGGTLARRKKAKEVSELQEEGMNAINLPLSPIPFELDPEDTMLEENEVRTMVDPNSRSDPKLQELMKVLIDWINDVLVGERIIVKDLAEDLYDGQVLQKLFEKLESEKLNVAEVTQSEIAQKQKLQTVLEKINETLKLPPRSIKWNVDSVHAKSLVAILHLLVALSQYFRAPIRLPDHVSIQVVVVQKREGILQSRQIQEEITGNTEALSGRHERDAFDTLFDHAPDKLNVVKKTLITFVNKHLNKLNLEVTELETQFADGVYLVLLMGLLEGYFVPLHSFFLTPDSFEQKVLNVSFAFELMQDGGLEKPKPRPEDIVNCDLKSTLRVLYNLFTKYRNVE
partner: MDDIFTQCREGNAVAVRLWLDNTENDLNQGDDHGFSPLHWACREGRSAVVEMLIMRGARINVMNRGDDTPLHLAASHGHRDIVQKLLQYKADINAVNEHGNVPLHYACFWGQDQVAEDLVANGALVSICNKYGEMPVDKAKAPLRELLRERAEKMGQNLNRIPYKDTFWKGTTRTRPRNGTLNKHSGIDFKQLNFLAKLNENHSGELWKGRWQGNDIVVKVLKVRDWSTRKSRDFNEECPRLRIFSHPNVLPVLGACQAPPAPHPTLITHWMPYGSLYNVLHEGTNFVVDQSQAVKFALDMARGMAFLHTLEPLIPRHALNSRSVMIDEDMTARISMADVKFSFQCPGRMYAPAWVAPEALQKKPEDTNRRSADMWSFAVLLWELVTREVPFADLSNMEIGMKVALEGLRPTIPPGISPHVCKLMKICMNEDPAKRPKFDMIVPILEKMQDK

Variants of B1 are the subject of the experiment. The following applies: with ilk_mouse Ilk.
As for MATSPQKSPSVPKSPTPKSPPSRKKDDSFLGKLGGTLARRKKAKEVSELQEEGMNAINLPLSPIPFELDPEDTMLEENEVRTMVDPNSRSDPKLQELMKVLIDWINDVLVGERIIVKDLAEDLYDGQVLQKLFEKLESEKLNVAEVTQSEIAQKQKLQTVLEKINETLKLPPRSIKWNVDSVHAKSLVAILHLLVALSQYFRAPIRLPDHVSIQVVVVQKREGILQSRQIQEEITGNTEALSGRHERDAFDTLFDHAPDKLNVVKKTLITDVNKHLNKLNLEVTELETQFADGVYLVLLMGLLEGYFVPLHSFFLTPDSFEQKVLNVSFAFELMQDGGLEKPKPRPEDIVNCDLKSTLRVLYNLFTKYRNVE [F271D], the “effect of a mutation on the interaction” value is on record as “disrupting interaction strength”.
